Experimental data: patent US20180209983A1 (SUBDOMAIN, published 2018)
Numbering of substitutions follows the chain as printed.

B1: DBDpp of SEQ ID NO: 35, phage-displayed (designed binder)
chain: MGSWSEFYNRLDAIESRLLALGGSEAELALFEIQIARFEKVLQAYKGKGNPEVEALRGEARAIFAELYAYRHN
B2: DBDpp of SEQ ID NO: 36, phage-displayed (designed binder)
chain: MGSWYEFYNRLYAIEIRLYALGGSEAELAAFEKEIAAFESELQAYKGKGNPEVERLRVRAAKIRVILQAYRHN
B3: bb10 (DBDpp clone from the F2NNK library), phage-displayed (designed binder)
chain: MGSWAEFKQRLAAIKTRLEALGGSEAELAAFLGEIWAFEMELAAYKGKGNPEVEALGREAAAIRMELQAYRHN
notes: Tested as rescued M13 phage; In the F2NNK library the DBDpp carries an N-terminal FLAG tag and is fused at its C-terminus to M13 pIII (pComb phagemid); also called the 89 clones
B4: DBDpp of SEQ ID NO: 30, phage-displayed (designed binder)
chain: MGSWHYFKDHLAEIKGLLEALGGSEAELAHFEMAIADFEHNLQYYKGKGNPEVEALRKEAAAIRDELQAYRHN
notes: F1 library; rescued M13 phage clone, DBDpp fused to pIII
B5: DBDpp of SEQ ID NO: 32, phage-displayed (designed binder)
chain: B4 chain with H5I, D9E, E13Y, G16K, L17E, M33S, D37V, H40S, N41T
notes: as for B4
B6: DBDpp of SEQ ID NO: 31, phage-displayed (designed binder)
chain: B4 chain with D9G, G16N, L17H, M33R, D37A, H40R, N41S, Y44W
notes: as for B4
B7: DBDpp of SEQ ID NO: 33, phage-displayed (designed binder)
chain: B4 chain with H5T, D9E, G16Y, L17M, M33V, H40K, N41M
notes: as for B4
B8: DBDpp of SEQ ID NO: 34, phage-displayed (designed binder)
chain: B4 chain with H5W, Y6L, G16T, L17A, D37A, H40K, N41Q
notes: as for B4
B9: DBDpp of SEQ ID NO: 29, phage-displayed (designed binder)
chain: MGSWFYFKQHLAWIKSYLEALGGSEAELAHFERAIAAFEQHLQMYKGKGNPEVEALRKEAAAIRDELQAYRHN
notes: as for B4
B10: DBDpp of SEQ ID NO: 28, phage-displayed (designed binder)
chain: MGSWVYFKEHLAWIKTELEALGGSEAELAHFEHSIADFEMSLQFYKGKGNPEVEALRKEAAAIRDELQAYRHN
notes: F1 library
B11: DBDpp of SEQ ID NO: 47, phage-displayed (designed binder)
chain: MGSWVMFKWLLADIKSHLEALGGSEAELAFFEGFIAAFETHLQVYKGKGNPEVEALRKEAAAIRDELQAYRHN
notes: as for B4
B12: DBDpp of SEQ ID NO: 48, phage-displayed (designed binder)
chain: MGSWYAFKDYLADIKGWLEALGGSEAELAFFEIFIARFELELQAYKGKGNPEVEALRKEAAAIRDELQAYRHN
notes: as for B4
B13: DBDpp of SEQ ID NO: 46, phage-displayed (designed binder)
chain: MGSWTIFKEWLAFIKTDLEALGGSEAELAFFEGWIASFEMELQKYKGKGNPEVEALRKEAAAIRDELQAYRHN
notes: as for B4
B14: DBDpp of SEQ ID NO: 40, phage-displayed (designed binder)
chain: MGSWYEFQNRLHAIHERLNALGGSEAELAAFEKEIAAFESELQAYKGKGNPEVELLRDDAAFIRHFLQAYRHN
notes: F3 library; rescued M13 phage clone, DBDpp fused to pIII
B15: DBDpp of SEQ ID NO: 41, phage-displayed (designed binder)
chain: B14 chain with Y5F, N9D, H12T, H15N, N19S, L55T, D58S, H65R
notes: as for B14
B16: DBDpp of SEQ ID NO: 44, phage-displayed (designed binder)
chain: B14 chain with Y5F, Q8E, H15V, E16H, N19G, L55T, D58A, F66Y
notes: as for B14
B17: DBDpp of SEQ ID NO: 39, phage-displayed (designed binder)
chain: B14 chain with Y5Q, Q8D, N9D, H12N, H15K, E16A, N19Q, L55D, H65R
notes: as for B14
B18: DBDpp of SEQ ID NO: 42, phage-displayed (designed binder)
chain: B14 chain with Q8E, N9S, H12D, N19H, L55N, D58G
notes: as for B14
B19: DBDpp of SEQ ID NO: 43, phage-displayed (designed binder)
chain: B14 chain with Q8N, N9H, H12D, H15S, E16K, L55E, D58G
notes: as for B14
B20: DBDpp of SEQ ID NO: 38, phage-displayed (designed binder)
chain: B14 chain with Y5T, N9S, H12D, E16S, N19R
notes: as for B14
B21: DBDpp of SEQ ID NO: 45, phage-displayed (designed binder)
chain: MGSWVVFKVDLATIKYILEALGGSEAELAEFEGEIAGFEYSLQFYKGKGNPEVEALRKEAAAIRDELQAYRHN
notes: F1 library
B22: DBDpp of SEQ ID NO: 37, phage-displayed (designed binder)
chain: MGSWLWFKIFLAEIKYFLEALGGSEAELAAFDFEIHAFHVELFAYKGKGNPEVEVLREVAAEIRWDLQAYRHN
B23: DBDpp of SEQ ID NO: 61, phage-displayed (designed binder)
chain: B14 chain with Q8D, N9D, H12N, E16D, N19Q, L55D, H65R
notes: as for B14
B24: DBDpp of SEQ ID NO: 60, phage-displayed (designed binder)
chain: B14 chain with Q8T, N9V, H12E, N19K, L55I, H65R
notes: as for B14

Target: purified recombinant KIR-Fc protein
Experiment: phage ELISA; signal on target-Fc over non-specific control (e.g. IgG1-Fc); average where several clones

Point of comparison: B2, ELISA ratio 4.24. Against it:
- B1 — higher, 8.4

Target: T1, recombinant, biotinylated, Human 4-1BB/TNFRSF9/CD137-Fc (human, UniProt Q07011 24-186, biotinylated (site not stated))
T1 construct: Selection and screening target of the phage ELISA; also called 4-1BB/CD137; not shown: Fc portion
Experiment: phage ELISA of rescued clones on human CD137-Fc
Source text: The F2NNK DBD library was used in five rounds of selection against recombinant, biotinylated, Human 4-1BB/TNFRSF9/CD137-Fc.

T1 sequence (Q07011 24-186 limits assumed): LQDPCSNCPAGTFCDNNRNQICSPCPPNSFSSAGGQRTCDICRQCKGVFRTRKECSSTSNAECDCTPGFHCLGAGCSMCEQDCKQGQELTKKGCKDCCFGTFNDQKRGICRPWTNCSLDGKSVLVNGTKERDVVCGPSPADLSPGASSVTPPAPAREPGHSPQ

For B3, the “fold of ELISA OD over control (IgG Fc)” value was 5.3 fold.

Target: T2, purified recombinant DR5-Fc protein (UniProt O14763-2 56-182, limits assumed)
T2 construct: also called TRAIL-R2; not shown: Fc portion
Experiment: phage ELISA; signal on target-Fc over non-specific control (e.g. IgG1-Fc); average where several clones
Description: (§1) Selections were also performed using F1, F2, F3, C1 & C2 trinucleotide phosphoramidite libraries. In most cases, libraries were pooled prior to use in selection. By combining equal volumes of the individual libraries, Pool F (libraries F1, F2 and F3) and Pool C (libraries C1 and C2) were generated. These libraries were used in selections for DBDpp binders to 4-1BB/CD137 as well as a larger panel of purified recombinant “target”-Fc proteins, including CD47, CTLA4, DR5, KIR, LAG3, OX40, PD1, PD-L1 and TIM3. (Many of these targets are considered immuno-regulatory factors (Pardoll et al., Nat. Rev. Cancer 12:252-264 (2012)). After incubation of the target with the pools of DBDpp phage libraries, bound phage-target complexes were captured and separated from unbound phage with protein A beads (target proteins were Fc fusions). After three rounds of selection, rescued phage clones were screened by ELISA for binding to the selected target.
(§2) For each target, approximately 90 DBDpp phage clones were screened by ELISA for binding to the target protein and as well as a non-specific control (e.g., IgG1-Fc). […] In some instances, for the ELISA screening plate in which the majority of DBDpp clones were positive, the entire plate was sequenced.

T2 sequence (O14763 56-182 limits assumed): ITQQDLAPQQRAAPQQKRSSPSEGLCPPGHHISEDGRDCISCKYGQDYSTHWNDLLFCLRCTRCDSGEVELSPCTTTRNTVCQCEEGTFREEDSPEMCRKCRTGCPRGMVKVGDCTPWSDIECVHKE

Point of comparison: B10, ELISA ratio 12.1. Against it:
- B4 — lower, 11.4
- B5 — lower, 10.7
- B6 — lower, 10.8
- B7 — lower, 10.3
- B8 — lower, 9.75
- B9 — lower, 11.8

Target: T3, purified recombinant PD1-Fc protein (UniProt Q15116 25-167, limits assumed)
T3 construct: not shown: Fc portion
Experiment: as above
Description: as §1, §2

T3 sequence (Q15116 25-167 limits assumed): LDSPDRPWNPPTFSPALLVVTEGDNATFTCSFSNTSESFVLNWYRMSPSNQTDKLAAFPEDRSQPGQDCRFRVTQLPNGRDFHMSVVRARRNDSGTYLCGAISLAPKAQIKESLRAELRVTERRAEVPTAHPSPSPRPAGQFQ

Point of comparison: B13, ELISA ratio 17.1. Against it:
- B11 — lower, 8.13
- B12 — lower, 3.29

Target: T4, purified recombinant PD-L1-Fc protein (UniProt Q9NZQ7 19-238)
T4 construct: also called B7-H1; not shown: Fc portion
Experiment: as above
Description: as §1, §2

T4 sequence (Q9NZQ7 19-238 limits assumed): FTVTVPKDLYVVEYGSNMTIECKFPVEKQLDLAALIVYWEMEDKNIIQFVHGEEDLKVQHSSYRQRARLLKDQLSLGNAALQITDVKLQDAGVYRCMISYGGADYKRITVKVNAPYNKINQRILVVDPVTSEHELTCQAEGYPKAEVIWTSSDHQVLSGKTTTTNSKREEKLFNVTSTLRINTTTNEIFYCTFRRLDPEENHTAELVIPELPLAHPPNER

Point of comparison: B14, ELISA ratio 6.34. Against it:
- B15 — lower, 6.01
- B16 — lower, 2.76
- B17 — higher, 7.41
- B18 — lower, 4.88
- B19 — lower, 2.98
- B20 — higher, 8.68

Target: T5, purified recombinant TIM3-Fc protein (UniProt Q8TDQ0 22-202, limits assumed)
T5 construct: not shown: Fc portion
Experiment: as above
Description: as §1, §2

B21 gave an ELISA ratio of 5.79.

Target: purified recombinant KIR-Fc protein
Experiment: phage ELISA; signal on target-Fc over non-specific control (e.g. IgG1-Fc)

Work on B22 yielded an ELISA ratio of 4.17.

Target: T4, purified recombinant PD-L1-Fc protein
Experiment: as above
Description: as §1, §2

Point of comparison: B23, ELISA ratio 12.2. Against it:
- B24 — higher, 17.3
